Measurements published in US20240400614A1, “CLEAVABLE PEPTIDES AND METHODS OF USE THEREOF” (Bright Peak Therapeutics AG, priority 2023, published 2024).
Square brackets hold non-standard residues; d marks the D form. Ends that are not written are not given here. Tyr(3-NO2) = N[C@@H](Cc1ccc(O)c([N+](=O)[O-])c1)C(=O)O; 2Abz = Nc1ccccc1C(=O)O

Columns and labels:
Type in all cases: biochemical
uPA = uPA (Homo sapiens, UniProt P00749); experiment: FRET peptide cleavage efficiency with uPA
MMP-9 = molecular target: T1, MMP-9 (Homo sapiens, UniProt P14780); experiment: FRET peptide cleavage efficiency with MMP-9 (standard pH 7.5; also pH 6.5)
T1 construct: purchased SIGMA PF024
T1 sequence (P14780 94-707): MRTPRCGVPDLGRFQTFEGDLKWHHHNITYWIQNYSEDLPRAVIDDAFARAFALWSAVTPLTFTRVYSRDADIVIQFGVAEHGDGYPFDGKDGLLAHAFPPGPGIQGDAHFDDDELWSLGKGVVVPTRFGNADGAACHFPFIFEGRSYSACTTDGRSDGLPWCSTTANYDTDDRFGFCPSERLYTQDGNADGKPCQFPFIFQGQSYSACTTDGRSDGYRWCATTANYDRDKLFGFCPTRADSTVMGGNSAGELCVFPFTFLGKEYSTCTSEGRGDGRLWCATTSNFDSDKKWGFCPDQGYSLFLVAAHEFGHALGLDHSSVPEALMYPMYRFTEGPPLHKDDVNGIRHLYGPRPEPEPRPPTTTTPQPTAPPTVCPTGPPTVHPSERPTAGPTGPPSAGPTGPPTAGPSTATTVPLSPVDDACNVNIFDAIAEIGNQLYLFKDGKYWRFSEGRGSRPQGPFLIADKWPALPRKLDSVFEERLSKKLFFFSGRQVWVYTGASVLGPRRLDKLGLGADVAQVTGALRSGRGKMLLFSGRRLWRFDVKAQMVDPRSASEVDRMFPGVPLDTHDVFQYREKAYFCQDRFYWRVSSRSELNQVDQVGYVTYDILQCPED

MMP-7 = molecular target: T2, MMP-7 (Homo sapiens, UniProt P09237); experiment: FRET peptide cleavage efficiency with MMP-7 (standard pH 7.5; also pH 6.5)
T2 construct: purchased SIGMA CC1059
T2 sequence (P09237 95-267): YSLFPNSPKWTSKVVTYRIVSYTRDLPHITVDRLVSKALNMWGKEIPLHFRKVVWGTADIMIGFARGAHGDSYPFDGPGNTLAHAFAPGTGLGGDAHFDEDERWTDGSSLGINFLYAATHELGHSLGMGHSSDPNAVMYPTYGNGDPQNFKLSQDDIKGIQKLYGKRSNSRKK

matriptase = molecular target: T3, matriptase (Homo sapiens, UniProt Q9Y5Y6); experiment: FRET peptide cleavage efficiency with matriptase
T3 construct: purchased R&D Systems 3946-SEB
T3 sequence (Q9Y5Y6 615-855 limits assumed): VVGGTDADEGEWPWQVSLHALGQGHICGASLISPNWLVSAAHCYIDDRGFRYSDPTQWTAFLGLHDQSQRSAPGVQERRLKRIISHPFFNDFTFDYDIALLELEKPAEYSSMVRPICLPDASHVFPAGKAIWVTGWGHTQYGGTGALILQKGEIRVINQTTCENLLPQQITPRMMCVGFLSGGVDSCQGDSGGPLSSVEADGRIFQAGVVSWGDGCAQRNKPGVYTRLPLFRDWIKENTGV

MMP-2 = molecular target: T4, MMP-2 (Homo sapiens, UniProt P08253); experiment: FRET peptide cleavage efficiency with MMP-2
T4 construct: purchased SIGMA PF023
T4 sequence (P08253 110-660): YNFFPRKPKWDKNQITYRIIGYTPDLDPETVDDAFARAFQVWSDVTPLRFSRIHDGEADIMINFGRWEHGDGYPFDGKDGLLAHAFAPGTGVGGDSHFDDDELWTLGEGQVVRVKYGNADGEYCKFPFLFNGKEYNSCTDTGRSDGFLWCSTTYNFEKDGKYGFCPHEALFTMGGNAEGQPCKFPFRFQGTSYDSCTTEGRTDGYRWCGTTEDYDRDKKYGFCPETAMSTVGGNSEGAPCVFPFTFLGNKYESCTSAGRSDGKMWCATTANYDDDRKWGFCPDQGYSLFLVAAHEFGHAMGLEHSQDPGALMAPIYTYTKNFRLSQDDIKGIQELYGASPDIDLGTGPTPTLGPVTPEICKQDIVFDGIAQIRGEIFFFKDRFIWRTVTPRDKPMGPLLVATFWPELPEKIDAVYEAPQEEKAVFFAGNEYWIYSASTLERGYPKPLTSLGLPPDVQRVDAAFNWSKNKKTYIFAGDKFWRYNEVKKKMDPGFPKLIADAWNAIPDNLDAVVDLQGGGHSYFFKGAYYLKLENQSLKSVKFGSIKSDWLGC

[1] = t = 15 min, standard conditions (Table 8)
[2] = t = 60 min, standard conditions (Table 8)
[3] = t = 120 min, standard conditions (Table 8)
[4] = 200 uM linker, 1 ug/ml protease, 37° C., buffer A pH 8.5
[5] = 200 uM linker, 1 ug/ml protease, 37° C., buffer B pH 9.0

Substance | % vcleavage uPA t = 15 min (uPA; [1]) [%] | % cleavage uPA t = 60 min (uPA; standard conditions (Table 8)) [%] | % cleavage uPA t = 120 min (uPA; standard conditions (Table 8)) [%] | % cleavage MMP-9 t = 15 min (MMP-9; t = 15 min (Table 9)) [%] | % cleavage MMP-9 t = 15 min (MMP-9; [1]) [%] | % cleavage MMP-9 t = 60 min (MMP-9; t = 60 min (Table 9)) [%] | % cleavage MMP-9 t = 60 min (MMP-9; [2]) [%] | % cleavage MMP-9 t = 120 min (MMP-9; t = 120 min (Table 9)) [%] | % cleavage MMP-9 t = 120 min (MMP-9; [3]) [%] | % cleavage MMP-7 t = 15 min (MMP-7; t = 15 min (Table 9)) [%] | % cleavage MMP-7 t = 15 min (MMP-7; [1]) [%] | % cleavage MMP-7 t = 60 min (MMP-7; t = 60 min (Table 9)) [%] | % cleavage MMP-7 t = 60 min (MMP-7; [2]) [%] | % cleavage MMP-7 t = 120 min (MMP-7; t = 120 min (Table 9)) [%] | % cleavage MMP-7 t = 120 min (MMP-7; [3]) [%] | % cleavage Matriptase t = 15 min (matriptase; standard conditions (Table 8)) [%] | % cleavage Matriptase t = 60 min (matriptase; standard conditions (Table 8)) [%] | % cleavage MMP-2 t = 15 min (MMP-2; t = 15 min (Table 9)) [%] | % cleavage MMP-2 t = 60 min (MMP-2; t = 60 min (Table 9)) [%] | % cleavage MMP-2 t = 120 min (MMP-2; t = 120 min (Table 9)) [%] | further results
RGRRVANLVG ([2Abz]RGRRVANLVG[Tyr(3-NO2)]-NH2) [LNK033] | 1 | 2 | 3 | 81 | 81 | 100 | 100 | 100 | 100 | 30 | 30 | 86 | 86 | 98 | 98 | 100 | 100 | 87 | 100 | 100 | % cleavage Matriptase t = 120 min (matriptase; standard conditions (Table 8)): 100%; % cleavage MMP-2 t = 60 min (MMP-2; [2]): 100%; % cleavage MMP-2 t = 120 min (MMP-2; [3]): 100%
RGRRPLGYFGKL ([2Abz]RGRRPLGYFGKL[Tyr(3-NO2)]-NH2) [LNK057] | – | – | – | 20 | – | 100 | – | 100 | – | 0 | – | 0 | – | 0 | – | – | – | 71 | 100 | 100 | % cleavage uPA t = 15 min (uPA; t = 15 min, 200 uM linker, 1 ug/ml protease, 37° C., buffer A pH 8.5): 0%; % cleavage uPA t = 60 min (uPA; [4]): 0%; % cleavage uPA t = 120 min (uPA; [4]): 0%; % cleavage Matriptase t = 15 min (matriptase; [5]): 22%; % cleavage Matriptase t = 60 min (matriptase; [5]): 78%; % cleavage Matriptase t = 120 min (matriptase; [5]): 100%; % cleavage MMP-2 t = 15 min (MMP-2; t = 15 min, 200 uM linker, 1 ug/ml protease, 37° C., buffer C pH 7.5): 71%; % cleavage MMP-2 t = 60 min (MMP-2; t = 60 min, 200 uM linker, 1 ug/ml protease, 37° C., buffer C pH 7.5): 100%; % cleavage MMP-2 t = 120 min (MMP-2; t = 120 min, 200 uM linker, 1 ug/ml protease, 37° C., buffer C pH 7.5): 100%
RGRKSPYMLQG ([2Abz]RGRKSPYMLQG[Tyr(3-NO2)]-NH2) [LNK037] | 0 | 0 | 0 | 46 | 46 | 100 | 100 | 100 | 100 | 19 | 19 | 63 | 63 | 88 | 88 | 90 | 100 | 28 | 70 | 89 | % cleavage Matriptase t = 120 min (matriptase; standard conditions (Table 8)): 100%; % cleavage MMP-2 t = 60 min (MMP-2; [2]): 70%; % cleavage MMP-2 t = 120 min (MMP-2; [3]): 89%
RGRRGP ([2Abz]RGRRGP[Tyr(3-NO2)]-NH2) [LNK048] | 0 | 0 | 0 | 0 | 0 | 0 | 0 | 0 | 0 | 0 | 0 | 0 | 0 | 0 | 0 | 100 | 100 | 0 | 0 | 0 | % cleavage Matriptase t = 120 min (matriptase; standard conditions (Table 8)): 100%; % cleavage MMP-2 t = 60 min (MMP-2; [2]): 0%; % cleavage MMP-2 t = 120 min (MMP-2; [3]): 0%
